In PMC3866193 one finds Kd, stoichiometry N and half life of the donor/acceptor heterodimer (single-exponential decay) data, which are given here for one molecule.

Experiment [1] has as its target EGFP-GluA2 ATD fusion protein. Nature of the experiment: AUC; fluorescence-detected sedimentation velocity (FDS-SV), dilution series of labeled protein (Figure 3); 50,000 rpm, 20°C; 20 mM Na phosphate pH 7.5, 150 mM NaCl, 1 mM EDTA, 0.1 mg/mL BSA carrier; sw isotherm fitted with a monomer-dimer model; dimer to monomers.
Experiment [2] has as its target Alexa Fluor 568-labeled GluA2 amino terminal domain. The experiment is described as follows: FRET or BRET; kinetic FRET in a spectrofluorometer, 20°C, excitation 495 nm, emission 603 nm; 50 nM donor-labeled and 50 nM AF568-labeled GluA2 ATD pre-equilibrated (30 min DL488, 60 min FAM), then 1 µM unlabeled GluA2 ATD added; decay fitted with exponential functions. Background: BRET reads energy transfer from a luciferase to a nearby fluorophore.

Alexa Fluor 568-labeled GluA2 amino terminal domain, sequence (P19491 whole entry, the tested form may be a part): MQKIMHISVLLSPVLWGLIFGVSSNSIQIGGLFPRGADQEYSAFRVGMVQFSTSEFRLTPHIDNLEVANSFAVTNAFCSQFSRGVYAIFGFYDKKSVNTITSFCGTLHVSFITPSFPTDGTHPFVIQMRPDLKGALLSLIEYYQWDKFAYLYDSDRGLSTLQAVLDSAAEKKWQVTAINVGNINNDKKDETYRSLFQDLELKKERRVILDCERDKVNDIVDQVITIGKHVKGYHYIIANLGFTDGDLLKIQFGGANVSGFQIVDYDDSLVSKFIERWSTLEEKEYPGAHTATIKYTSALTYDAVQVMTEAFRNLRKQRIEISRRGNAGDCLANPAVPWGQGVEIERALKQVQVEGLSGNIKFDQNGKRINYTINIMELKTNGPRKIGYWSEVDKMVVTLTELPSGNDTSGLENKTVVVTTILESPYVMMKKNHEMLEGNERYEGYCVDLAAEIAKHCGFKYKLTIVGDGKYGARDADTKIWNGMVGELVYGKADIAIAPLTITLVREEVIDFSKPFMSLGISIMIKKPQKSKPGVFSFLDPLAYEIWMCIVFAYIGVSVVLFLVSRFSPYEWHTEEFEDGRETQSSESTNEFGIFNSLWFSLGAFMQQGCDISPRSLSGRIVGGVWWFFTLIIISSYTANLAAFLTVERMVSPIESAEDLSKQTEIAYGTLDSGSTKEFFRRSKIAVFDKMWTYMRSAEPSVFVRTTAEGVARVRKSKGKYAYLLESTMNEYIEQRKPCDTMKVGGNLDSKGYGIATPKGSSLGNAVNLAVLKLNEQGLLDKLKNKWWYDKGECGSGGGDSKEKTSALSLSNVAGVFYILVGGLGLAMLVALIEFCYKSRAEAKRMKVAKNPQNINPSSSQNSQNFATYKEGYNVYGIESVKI

B1: EGFP-GluA2 ATD fusion protein (domain or fragment)
chain: NSIQIGGLFPRGADQEYSAFRVGMVQFSTSEFRLTPHIDNLEVANSFAVTNAFCSQFSRGVYAIFGFYDKKSVNTITSFCGTLHVSFITPSFPTDGTHPFVIQMRPDLKGALLSLIEYYQWDKFAYLYDSDRGLSTLQAVLDSAAEKKWQVTAINVGNINNDKKDETYRSLFQDLELKKERRVILDCERDKVNDIVDQVITIGKHVKGYHYIIANLGFTDGDLLKIQFGGANVSGFQIVDYDDSLVSKFIERWSTLEEKEYPGAHTATIKYTSALTYDAVQVMTEAFRNLRKQRIEISRRGNAGDCLANPAVPWGQGVEIERALKQVQVEGLSGNIKFDQNGKRINYTINIMELKTNGPRKIGYWSEVDKMVVTLTELPS
modifications: not checked
In the case of B1, in experiment [1], the dissociation constant Kd (usually the equilibrium constant for the complex coming apart) amounted to 25.4 nM and the stoichiometry N (in general, the number of molecules, sites or subunits per partner or assembly) stood at 2. In experiment [2], this molecule gave a half life of the donor/acceptor heterodimer (single-exponential decay) of 3.27 min.
